The text below walks through data of PMC9239997, “Structural basis for mitoguardin-2 mediated lipid transport at ER-mitochondrial membrane contact sites” (Nature Communications, 2022).

Usually stoichiometry N stands for a count of units in the complex or per binding partner. A word on the Kd: it is the constant that tells how readily two partners part at equilibrium. Low readings indicate higher affinity, high ones lower affinity.

[ ]: non-standard residue; d: D form. pS = N[C@@H](COP(=O)(O)O)C(=O)O

The labels stand for the following.
B3: MSP domain of mouse VAPB (residues 1-125) K43L/K45L (domain or fragment, UniProt Q9QY76 1-125, looked up)
chain: MAKVEQVLSLEPQHELKFRGPFTDVVTTNLKLGNPTDRNVCFLVLTTVPRRYCVRPNSGVIDAGASLNVSVMLQPFDYDPNEKSKHKFMVQSMFAPPDTSDMEAVWKEAKPEDLMDSKLRCVFEL
notes: VAPB, Mus musculus, MSP domain, residues 1-125, with K43L and K45L; also called mVAPB K43L/K45L
B4: MSP domain of mouse VAPB (residues 1-125) K87L/K118L (domain or fragment, UniProt Q9QY76 1-125, looked up)
chain: MAKVEQVLSLEPQHELKFRGPFTDVVTTNLKLGNPTDRNVCFKVKTTVPRRYCVRPNSGVIDAGASLNVSVMLQPFDYDPNEKSKHLFMVQSMFAPPDTSDMEAVWKEAKPEDLMDSLLRCVFEL
notes: VAPB, Mus musculus, MSP domain, residues 1-125, with K87L and K118L; also called mVAPB K87L/K118L
B5: phosphorylated FFAT motif peptide of mouse MIGA2 (residues 289-298) (peptide)
peptide: Ac-SED[pS]FF[pS]ATE-NH2
SMILES: CC(=O)N[C@@H](CO)C(=O)N[C@@H](CCC(=O)O)C(=O)N[C@@H](CC(=O)O)C(=O)N[C@@H](COP(=O)(O)O)C(=O)N[C@@H](Cc1ccccc1)C(=O)N[C@@H](Cc1ccccc1)C(=O)N[C@@H](COP(=O)(O)O)C(=O)N[C@@H](C)C(=O)N[C@H](C(=O)N[C@@H](CCC(=O)O)C(N)=O)[C@@H](C)O
notes: also called mMIGA2^pFFAT; source: synthetic peptide, purified by HPLC
B6: MSP domain of mouse VAPB (residues 1-125) (domain or fragment, mouse (Mus musculus), UniProt Q9QY76 1-125, looked up)
chain: MAKVEQVLSLEPQHELKFRGPFTDVVTTNLKLGNPTDRNVCFKVKTTVPRRYCVRPNSGVIDAGASLNVSVMLQPFDYDPNEKSKHKFMVQSMFAPPDTSDMEAVWKEAKPEDLMDSKLRCVFEL
notes: vesicle-associated membrane protein-associated protein B/C (VAPB), mouse, MSP domain, residues 1-125; In the liposome clustering (DLS) and tethered lipid transfer assays a His-tagged form (His-mVAPB) was used; also called mVAPB; wild-type mVAPB
B7: mouse MIGA2 residues 275-570, S292E/S295D (domain or fragment, mouse (Mus musculus), UniProt Q8BK03 275-570, looked up)
chain: GSLRLRADDEDSLTSEDEFFDATEIFESLQIGEYPLPLSRPAAAYEEALQLVKEGRVPCRTLRTELLGCYSDQDFLAKLHCVRQAFEGLLEERSNQIFFGEVGRQMVTGLMTKAEKSPKGFLESYEEMLSYALRPETWATTRLELEGRGVACMSFFDIVLDFILMDAFEDLENPPSSVLAVLRNRWLSDSFKETALATACWSVLKAKRRLLMVPDGFISHFYSVSEHVSPVLAFGFLGPKPQLSEVCAFFKHQIVQYLRDMFDLDNVRYTSVPALAEDILQLSRRRSEILLGYLGA

Series [1] deals with T1, zMiga2 (Danio rerio, UniProt Q5BLE2).
T1 construct: gene miga2; LD targeting domain, residues 310-568; E. coli BL21(DE3); His6 tag cleaved by TEV
T1 sequence (Q5BLE2 310-568): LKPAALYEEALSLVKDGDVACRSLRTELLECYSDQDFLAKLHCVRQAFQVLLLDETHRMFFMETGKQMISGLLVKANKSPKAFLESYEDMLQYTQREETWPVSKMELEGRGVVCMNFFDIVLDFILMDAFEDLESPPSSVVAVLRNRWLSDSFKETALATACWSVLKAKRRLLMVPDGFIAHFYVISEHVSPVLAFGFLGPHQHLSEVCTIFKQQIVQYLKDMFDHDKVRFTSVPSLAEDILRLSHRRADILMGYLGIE
Description: FRET lipid transfer between liposomes. The class given is biochemical. The conditions noted are these: labelled compound; 100 nM protein, pH 7.0, room temperature; transport, not chemical turnover.

Series [2] deals with the molecule itself. The series can be described thus: SEC; Superdex 200 increase 10/300 GL, 25 mM Tris-HCl pH 7.5, 150 mM NaCl, 5 mM DTT; proteins injected at 2–4 mg/ml; elution compared with molecular mass standards. For orientation: In gel filtration, larger molecules generally elute earlier.
Series [3] has as its target T2, mouse MIGA2 residues 275-570 S292E/S295D (mouse, UniProt Q8BK03 275-570, S292E | S295D).
T2 construct: source: E. coli BL21 (DE3), purified as the wild type (Ni2+-chelated HiTrap, tag cleaved by TEV, size exclusion chromatography)
T2 sequence (looked up): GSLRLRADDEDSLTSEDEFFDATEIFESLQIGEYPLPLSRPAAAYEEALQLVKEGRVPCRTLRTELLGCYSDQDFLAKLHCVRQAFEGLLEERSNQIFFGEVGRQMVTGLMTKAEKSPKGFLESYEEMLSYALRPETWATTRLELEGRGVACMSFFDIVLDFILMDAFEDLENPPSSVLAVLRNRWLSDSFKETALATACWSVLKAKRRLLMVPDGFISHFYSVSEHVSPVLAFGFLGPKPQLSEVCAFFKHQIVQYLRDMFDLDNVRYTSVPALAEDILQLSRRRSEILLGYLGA
The series can be described thus: ITC; mVAPB (wild type or mutant) in the syringe, mMIGA2^275-570 or mMIGA2^pFFAT in the cell; Microcal ITC200, 25 °C, 25 mM Tris-HCl pH 7.5, 150 mM NaCl, 4 mM β-mercaptoethanol; 20 injections of 2 μl; 1:1 binding model. The conditions noted are these: both partners purified. For orientation: ITC needs no label: the signal is the heat of the interaction.

The target of series [4] is T3, mouse MIGA2 residues 275-570 S292E (mouse, UniProt Q8BK03 275-570, S292E).
T3 construct: source: E. coli BL21 (DE3), purified as the wild type (Ni2+-chelated HiTrap, tag cleaved by TEV, size exclusion chromatography)
T3 sequence (looked up): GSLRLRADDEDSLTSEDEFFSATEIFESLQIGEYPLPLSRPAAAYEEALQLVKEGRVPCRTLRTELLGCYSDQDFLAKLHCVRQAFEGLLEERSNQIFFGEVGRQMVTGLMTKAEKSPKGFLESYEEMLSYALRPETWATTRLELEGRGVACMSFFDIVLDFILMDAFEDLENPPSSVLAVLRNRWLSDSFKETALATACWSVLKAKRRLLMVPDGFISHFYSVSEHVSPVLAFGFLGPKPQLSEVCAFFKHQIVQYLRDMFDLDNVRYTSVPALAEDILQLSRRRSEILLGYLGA
The description is as above. The conditions noted are these: both partners purified.

Series [5] deals with T4, mouse MIGA2 residues 275-570 S295D (mouse, UniProt Q8BK03 275-570, S295D).
T4 construct: source: E. coli BL21 (DE3), purified as the wild type (Ni2+-chelated HiTrap, tag cleaved by TEV, size exclusion chromatography)
T4 sequence (looked up): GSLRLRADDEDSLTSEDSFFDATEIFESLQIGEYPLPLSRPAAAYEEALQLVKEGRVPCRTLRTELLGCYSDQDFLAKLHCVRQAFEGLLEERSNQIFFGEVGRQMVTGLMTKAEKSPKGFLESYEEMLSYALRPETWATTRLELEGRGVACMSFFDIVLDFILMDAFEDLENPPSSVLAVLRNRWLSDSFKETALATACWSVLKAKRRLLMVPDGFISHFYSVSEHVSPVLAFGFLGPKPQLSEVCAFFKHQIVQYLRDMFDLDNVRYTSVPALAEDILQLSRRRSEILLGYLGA
The series is described as above. Particulars: both partners purified.

In series [6] the target is B5. The description is as above. Particulars: both partners purified.
Series [7] deals with B4. Described as above. Particulars: both partners purified.
The target of series [8] is B3. Described as above. Particulars: both partners purified.
The target of series [9] is T5, mouse MIGA2 residues 275-570, S292E (mouse (Mus musculus), UniProt Q8BK03 275-570, S292E).
T5 construct: also called S292E phosphorylation mimic mutant; source: E. coli BL21 (DE3), purified (Ni2+-chelated HiTrap, TEV cleavage, SEC)
T5 sequence (looked up): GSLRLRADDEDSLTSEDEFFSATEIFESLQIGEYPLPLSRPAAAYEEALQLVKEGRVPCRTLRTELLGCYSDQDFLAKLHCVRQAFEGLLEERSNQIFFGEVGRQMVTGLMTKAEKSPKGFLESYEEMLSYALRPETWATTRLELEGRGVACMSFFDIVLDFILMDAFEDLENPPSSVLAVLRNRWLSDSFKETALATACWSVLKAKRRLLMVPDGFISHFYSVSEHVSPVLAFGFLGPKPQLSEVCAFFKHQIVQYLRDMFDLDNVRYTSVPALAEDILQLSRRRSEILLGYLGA
Description: ITC; Microcal ITC200, 25 °C, buffer C (25 mM Tris-HCl pH 7.5, 150 mM NaCl, 4 mM β-mercaptoethanol); 20 injections of 2 μl; 1:1 binding model. The conditions noted are these: both partners purified.

Series [10] concerns the target T6, mouse MIGA2 residues 275-570, S295D (mouse (Mus musculus), UniProt Q8BK03 275-570, S295D).
T6 construct: also called S295D phosphorylation mimic mutant; source: E. coli BL21 (DE3), purified (Ni2+-chelated HiTrap, TEV cleavage, SEC)
T6 sequence (looked up): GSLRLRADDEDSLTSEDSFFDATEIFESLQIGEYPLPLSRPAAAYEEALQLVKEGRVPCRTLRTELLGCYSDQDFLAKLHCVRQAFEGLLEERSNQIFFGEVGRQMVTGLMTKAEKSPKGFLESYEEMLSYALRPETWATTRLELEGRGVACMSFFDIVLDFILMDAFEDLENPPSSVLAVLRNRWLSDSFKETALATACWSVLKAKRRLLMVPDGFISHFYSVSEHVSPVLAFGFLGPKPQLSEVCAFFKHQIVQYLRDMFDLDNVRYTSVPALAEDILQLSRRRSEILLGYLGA
Described as above. The conditions noted are these: both partners purified.

Series [11] deals with B7. The description is as above. Particulars: both partners purified.
Series [12] addresses B6. Description: cell-based or functional assay.

In the case of `CCCCCCCCCCCCCCCC(=O)OC[C@H](COP(=O)(O)O)OC(=O)CCCCCCCCCCCNc1ccc([N+](=O)[O-])c2nonc12` [NBD-PA, 1-palmitoyl-2-{12-[(7-nitro-2-1,3-benzoxadiazol-4-yl)amino]dodecanoyl}-sn-glycero-3-phosphate], in series [1], the “FRET lipid transfer between liposomes” value was “zMiga2 transfers not only PS, but also PE, PC, and PA”.

Take `CCCCCCCCCCCCCCCC(=O)OC[C@H](COP(=O)(O)OC[C@H](N)C(=O)O)OC(=O)CCCCCCCCCCCNc1ccc([N+](=O)[O-])c2nonc12` [NBD-PS, 1-palmitoyl-2-{12-[(7-nitro-2-1,3-benzoxadiazol-4-yl)amino]dodecanoyl}-sn-glycero-3-phosphoserine]: the “FRET lipid transfer between liposomes” value in series [1] was “zMiga2 transferred PS more rapidly than other phospholipids”.

B1: mouse MIGA2 middle domain, residues 161-300 (domain or fragment, UniProt Q8BK03 161-300, looked up)
chain: GMEESVPTTDGSAESLYVQGMELFEEALQKWEQALSVGQRGDGGSTPTPGDSLQNPDTASEALSEPESQRREFAEKLESLLHRAYHLQEEFGSTFPSDSMLLDLERTLMLPLTEGSLRLRADDEDSLTSEDSFFSATEIF
notes: Oligomer of unstated size by SEC; also called central MIGA2 domain; source: E. coli BL21 (DE3), purified (Ni2+-chelated HiTrap, tag cleaved by TEV, size exclusion chromatography)
With B1, the binding result in series [2] is recorded as “binds”.

B2: MSP domain of mouse VAPB (residues 1-125) (domain or fragment, UniProt Q9QY76 1-125, looked up)
chain: MAKVEQVLSLEPQHELKFRGPFTDVVTTNLKLGNPTDRNVCFKVKTTVPRRYCVRPNSGVIDAGASLNVSVMLQPFDYDPNEKSKHKFMVQSMFAPPDTSDMEAVWKEAKPEDLMDSKLRCVFEL
notes: vesicle-associated membrane protein-associated protein B/C (VAPB), Mus musculus, MSP domain, residues 1-125; Cloned into pGEX-6P-1; the pull-down used a GST-fused form, which is not this molecule; also called mVAPB; mVAPB WT
On to B2, for which the “stoichiometry N” value in series [3] came to 0.658 ± 0.009; in series [4], 0.633 ± 0.071; in series [5], 0.501 ± 0.013; in series [6], 0.755 ± 0.07.

With B3, in series [6], the “stoichiometry N” value worked out at 1.04 ± 0.027.

With B4, the “stoichiometry N” value in series [6] turned out to be 0.698 ± 0.071.

In the case of B5, the dissociation constant (Kd) in [7] turned out to be 5 ± 0.4 µM; in [8], 8.6 ± 1.4 µM.

Turning to B6, the figures for the Kd in series [9], in [10] and in series [11] were 26.4 ± 6.8 µM, 8.1 ± 1.5 µM and 2.5 ± 0.3 µM, respectively.

In the case of B7, the “liposome particle size by DLS: donor liposomes pre-anchored with His-mVAPB mixed with acceptor liposomes pre-anchored with His-mMIGA2^275-570 (S292E/S295D), compared with wild-type His-mMIGA2^275-570” value in [12] is approximately 5 fold.

B8: mouse MIGA2 residues 161-570 (domain or fragment, UniProt Q8BK03 161-570, looked up)
chain: GMEESVPTTDGSAESLYVQGMELFEEALQKWEQALSVGQRGDGGSTPTPGDSLQNPDTASEALSEPESQRREFAEKLESLLHRAYHLQEEFGSTFPSDSMLLDLERTLMLPLTEGSLRLRADDEDSLTSEDSFFSATEIFESLQIGEYPLPLSRPAAAYEEALQLVKEGRVPCRTLRTELLGCYSDQDFLAKLHCVRQAFEGLLEERSNQIFFGEVGRQMVTGLMTKAEKSPKGFLESYEEMLSYALRPETWATTRLELEGRGVACMSFFDIVLDFILMDAFEDLENPPSSVLAVLRNRWLSDSFKETALATACWSVLKAKRRLLMVPDGFISHFYSVSEHVSPVLAFGFLGPKPQLSEVCAFFKHQIVQYLRDMFDLDNVRYTSVPALAEDILQLSRRRSEILLGYLGA
notes: Oligomer of unstated size by SEC; source: E. coli BL21 (DE3), purified (Ni2+-chelated HiTrap, tag cleaved by TEV, size exclusion chromatography)
In the case of B8, in [2], the binding result is given as “binds”.
